Laboratory results taken from PMC6895266, “Zika virus NS3 is a canonical RNA helicase stimulated by NS5 RNA polymerase”.

Assays:
[1] = target: ZIKV NS5, purified recombinant (UniProt A0A024B7W1); experiment: co-immunoprecipitation (IP Myc) with purified proteins, western blot quantification; details: parent: est. 1.0; read off a plot
[2] = target: NS3F (full-length NS3) WT (Zika virus, UniProt A0A2D0WX26 1504-2119); experiment: fluorescence polarization; 5 mM MgCl2, no ATP; details: protein: recombinant; tags: His; Myc (anti-myc blot); label: Cy3 (printed before the 5' end); single strand

ZIKV full-length NS3 (NS3F, residues 2-617), purified recombinant N569A; E573A
ratio to parent [1]: 0.16

GCGUCUUUACGGUGCU (ssRNA) [Cy3-ssRNA 16-mer]
Kd [2]: 99 ± 7 nM
